From US20150147318A1 (ZOETIS SERVICES, published 2015)

B1: SSM-2 (LC E3M, HC SSMwtHCG31Q) (antibody, V domains shown)
VH: EVQLVESGGDLARPGGSLKLSCVVSGFSLIQYDINWVRQAPGKGLQWVTMIWGDGTTDYNSALKSRFTVSRDNAMNTVYLQMNSLRVEDTAVYYCARGGYYYGTSYYFDYWGQGTLVTVSS
VL: DIVMTQTPLSLSVSPGETASISCRASQDISNHLNWFRQKPGQSPQRLIYYISRFHSGVPDRFSGSGSGTDFTLRISRVEADDTGVYYCQQSKTLPYTFGAGTKLEIK
notes: IgG expressed in HEK293; constant regions are not restated
B2: SSM-3 (LC E3M, HC SSMwtHCG31E) (antibody, V domains shown)
VH: EVQLVESGGDLARPGGSLKLSCVVSGFSLIEYDINWVRQAPGKGLQWVTMIWGDGTTDYNSALKSRFTVSRDNAMNTVYLQMNSLRVEDTAVYYCARGGYYYGTSYYFDYWGQGTLVTVSS
VL: DIVMTQTPLSLSVSPGETASISCRASQDISNHLNWFRQKPGQSPQRLIYYISRFHSGVPDRFSGSGSGTDFTLRISRVEADDTGVYYCQQSKTLPYTFGAGTKLEIK
B3: SSM-8 (LC E3M, HC SSMwtHCD54T, L63I) (antibody, V domains shown)
VH: EVQLVESGGDLARPGGSLKLSCVVSGFSLIGYDINWVRQAPGKGLQWVTMIWGTGTTDYNSAIKSRFTVSRDNAMNTVYLQMNSLRVEDTAVYYCARGGYYYGTSYYFDYWGQGTLVTVSS
VL: DIVMTQTPLSLSVSPGETASISCRASQDISNHLNWFRQKPGQSPQRLIYYISRFHSGVPDRFSGSGSGTDFTLRISRVEADDTGVYYCQQSKTLPYTFGAGTKLEIK
B4: SSM-13 (LC SSMwtLCR53S, HC SSMwtHCG31Q) (antibody, V domains shown)
VH: EVQLVESGGDLARPGGSLKLSCVVSGFSLIQYDINWVRQAPGKGLQWVTMIWGDGTTDYNSALKSRFTVSRDNAMNTVYLQMNSLRVEDTAVYYCARGGYYYGTSYYFDYWGQGTLVTVSS
VL: DIVMTQTPLSLSVSPGETASISCRASQDISNHLNWFRQKPGQSPQRLIYYISSFHSGVPDRFSGSGSGTDFTLRISRVEADDTGVYYCQQSKTLPYTFGAGTKLEIK
B5: SSM-14 (LC SSMwtLCR53S, HC SSMwtHCG31E) (antibody, V domains shown)
VH: EVQLVESGGDLARPGGSLKLSCVVSGFSLIEYDINWVRQAPGKGLQWVTMIWGDGTTDYNSALKSRFTVSRDNAMNTVYLQMNSLRVEDTAVYYCARGGYYYGTSYYFDYWGQGTLVTVSS
VL: DIVMTQTPLSLSVSPGETASISCRASQDISNHLNWFRQKPGQSPQRLIYYISSFHSGVPDRFSGSGSGTDFTLRISRVEADDTGVYYCQQSKTLPYTFGAGTKLEIK
B6: SSM-17 (LC SSMwtLCR53S, HC SSMwtHCD54T) (antibody, V domains shown)
VH: EVQLVESGGDLARPGGSLKLSCVVSGFSLIGYDINWVRQAPGKGLQWVTMIWGTGTTDYNSALKSRFTVSRDNAMNTVYLQMNSLRVEDTAVYYCARGGYYYGTSYYFDYWGQGTLVTVSS
VL: DIVMTQTPLSLSVSPGETASISCRASQDISNHLNWFRQKPGQSPQRLIYYISSFHSGVPDRFSGSGSGTDFTLRISRVEADDTGVYYCQQSKTLPYTFGAGTKLEIK
B7: SSM-19 (LC SSMwtLCR53S, HC SSMwtHCD54T, L63I) (antibody, V domains shown)
VH: EVQLVESGGDLARPGGSLKLSCVVSGFSLIGYDINWVRQAPGKGLQWVTMIWGTGTTDYNSAIKSRFTVSRDNAMNTVYLQMNSLRVEDTAVYYCARGGYYYGTSYYFDYWGQGTLVTVSS
VL: DIVMTQTPLSLSVSPGETASISCRASQDISNHLNWFRQKPGQSPQRLIYYISSFHSGVPDRFSGSGSGTDFTLRISRVEADDTGVYYCQQSKTLPYTFGAGTKLEIK
B8: SSM-22 (LC SSMwtLCR53S, HC SSMwtHCD54T, G31E) (antibody, V domains shown)
VH: EVQLVESGGDLARPGGSLKLSCVVSGFSLIEYDINWVRQAPGKGLQWVTMIWGTGTTDYNSALKSRFTVSRDNAMNTVYLQMNSLRVEDTAVYYCARGGYYYGTSYYFDYWGQGTLVTVSS
VL: DIVMTQTPLSLSVSPGETASISCRASQDISNHLNWFRQKPGQSPQRLIYYISSFHSGVPDRFSGSGSGTDFTLRISRVEADDTGVYYCQQSKTLPYTFGAGTKLEIK
B9: SSM-34 (LC SSM135LCR53S, HC135 (G103A)) (antibody, V domains shown)
VH: EVQLVESGGDLARPGGSLKLSCVVSGFSLIGYDINWVRQAPGKGLQWVTMIWGDGTTDYNSALKSRFTVSRDNAMNTVYLQMNSLRVEDTAVYYCARGGYYYATSYYFDYWGQGTLVTVSS
VL: DIVMTQTPLSLSVSPGETASISCRASQDISNNLNWFRQKPGQSPQRLIYYISSFHSGVPDRFSGSGSGTDFTLRISRVEADDTGVYYCQQSKTLPYTFGAGTKLEIK
notes: The light chain is the LTM135 template (E3M H32N) plus R53S

Target: T1, recombinant canine Nerve Growth Factor (Canis lupus familiaris NGF) (canine (Canis lupus familiaris), UniProt Q29074 110-229 (pig entry), limits assumed)
T1 construct: also called canine NGF; Dog NGF
T1 chain: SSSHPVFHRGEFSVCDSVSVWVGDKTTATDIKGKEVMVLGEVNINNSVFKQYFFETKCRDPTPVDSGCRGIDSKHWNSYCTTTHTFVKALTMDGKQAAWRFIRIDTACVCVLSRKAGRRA
Experiment: SPR, 1:1 binding fit, canine NGF
B1 gave a Kd of 14.2 nM, a koff of 0.000114 s⁻¹ and a kon of 8080 M⁻¹ s⁻¹. For B2, the Kd was 41.4 nM, the koff was 0.000167 s⁻¹ and the kon was 4040 M⁻¹ s⁻¹. For B3, the Kd was 41.8 nM, the koff was 0.000173 s⁻¹ and the kon was 4130 M⁻¹ s⁻¹. B4 was tested, and the Kd was 311 nM, the koff was 0.00241 s⁻¹ and the kon was 7750 M⁻¹ s⁻¹. Binder B5 has a Kd of 23.6 nM, a koff of 0.00812 s⁻¹ and a kon of 344000 M⁻¹ s⁻¹. In the case of B6, the Kd is reported as 69.1 nM, the koff is reported as 0.0014 s⁻¹ and the kon is reported as 20300 M⁻¹ s⁻¹. B7 was tested, and the Kd was 37.4 nM, the koff was 0.00164 s⁻¹ and the kon was 43800 M⁻¹ s⁻¹. Work on B8 yielded a Kd of 249 nM, a koff of 0.000296 s⁻¹ and a kon of 1190 M⁻¹ s⁻¹. B9 gave a Kd of 3.08 nM, a koff of 0.000192 s⁻¹ and a kon of 62400 M⁻¹ s⁻¹.
